In the Human Domainome abundance scans (Beltran et al. 2025) one finds abundance fitness data, which are given here for 46 variants.

Sequences and labels used below:
B1: Intersectin-1, residues 1156 to 1213; numbered along this chain, Q15811 (parent)
chain: AVCQVIGMYDYTAQNDDELAFNKGQIINVLNKEDPDWWKGEVNGQVGLFPSNYVKLTT

± gives the uncertainty stated by the source.

The variants in this data set derive from B1. As to the kind of experiment: abundance fitness (aPCA) (normalised: wild type 0, dead -1); higher = more abundant; growth selection in yeast, the domain comes from the species named. The note with it: Homo sapiens.
In the case of AVCQVIGMYDYTAQNDDELAFNKGQIINVLNKEDPDWWKGEVNGQVGLFPSNYVKLMT, the abundance fitness is -0.009 ± 0.15.

On to AVCQVIGMYDYTAQNDDELAFNKGQIINVLNKEDPDWWKGEVNGQVGLFPSNYVKLRT, for which the abundance fitness was -0.131 ± 0.078.

As for AVCQVIGMYDYTAQNDDELAFNKGQIINVLNKEDPDWWKGEVVGQVGLFPSNYVKLTT, the abundance fitness was -0.794 ± 0.12.

In the case of AVCQVIGMYDYTAQNDDELAFNKGQIINVLNKEDPDWWKGEVDGQVGLFPSNYVKLTT, the abundance fitness is -0.03 ± 0.14.

Take AVCQVIGMYDYTAQNDDELAFNKGQIINVLNKEDPDWWKGEVKGQVGLFPSNYVKLTT: the abundance fitness is -0.411 ± 0.14.

With AVCQVIGMYDYTAQNDDELAFNKGQIINVLNKEDPDWWKGEVEGQVGLFPSNYVKLTT, the abundance fitness was -0.189 ± 0.12.

Regarding AVCQVIGMYDYTAQNDDELAFNKQQIINVLNKEDPDWWKGEVNGQVGLFPSNYVKLTT, the abundance fitness was -0.44 ± 0.15.

As for AVCQVIGMYDYTAQNDDELAFNKGQIINVLNKEDPLWWKGEVNGQVGLFPSNYVKLTT, the abundance fitness was -0.072 ± 0.094.

As to AVCQVIGMYDYTAQNDDELAFNKGQIINVLNKEDPDWWKGEVNGQHGLFPSNYVKLTT, the abundance fitness was -0.562 ± 0.26.

As for AVCQVIGMYDYTAQNDDELAFNKGQIINVLNKEDPDWWKGSVNGQVGLFPSNYVKLTT, the abundance fitness is -0.299 ± 0.1.

On to AVCQVIKMYDYTAQNDDELAFNKGQIINVLNKEDPDWWKGEVNGQVGLFPSNYVKLTT, for which the abundance fitness was -0.772 ± 0.21.

Turning to AVCQVIQMYDYTAQNDDELAFNKGQIINVLNKEDPDWWKGEVNGQVGLFPSNYVKLTT, the abundance fitness is -0.893 ± 0.24.

As to AVCQDIGMYDYTAQNDDELAFNKGQIINVLNKEDPDWWKGEVNGQVGLFPSNYVKLTT, the abundance fitness was -0.711 ± 0.17.

Consider AVCQIIGMYDYTAQNDDELAFNKGQIINVLNKEDPDWWKGEVNGQVGLFPSNYVKLTT, for which the abundance fitness was -0.823 ± 0.16.

For AVCRVIGMYDYTAQNDDELAFNKGQIINVLNKEDPDWWKGEVNGQVGLFPSNYVKLTT, the abundance fitness was -0.354 ± 0.089.

As to AVCKVIGMYDYTAQNDDELAFNKGQIINVLNKEDPDWWKGEVNGQVGLFPSNYVKLTT, the abundance fitness is -0.236 ± 0.13.

Take AVCQVIGMYDYTAQNGDELAFNKGQIINVLNKEDPDWWKGEVNGQVGLFPSNYVKLTT: the abundance fitness was -0.121 ± 0.077.

Consider AVCQVIGMYDTTAQNDDELAFNKGQIINVLNKEDPDWWKGEVNGQVGLFPSNYVKLTT, for which the abundance fitness is -0.555 ± 0.19.

Take AVCQVIGMYDCTAQNDDELAFNKGQIINVLNKEDPDWWKGEVNGQVGLFPSNYVKLTT: the abundance fitness is -0.509 ± 0.17.

AVCQVIGMYDSTAQNDDELAFNKGQIINVLNKEDPDWWKGEVNGQVGLFPSNYVKLTT: the abundance fitness is -0.769 ± 0.13.

Consider AVCQVIGMYDYTAQNDDELAFNGGQIINVLNKEDPDWWKGEVNGQVGLFPSNYVKLTT, for which the abundance fitness was -0.701 ± 0.11.

On to AVCQVIGMYDYTAQNDDELAFNFGQIINVLNKEDPDWWKGEVNGQVGLFPSNYVKLTT, for which the abundance fitness is -0.613 ± 0.21.

With AVCQVIGMYDYTAQNDDELAFNWGQIINVLNKEDPDWWKGEVNGQVGLFPSNYVKLTT, the abundance fitness was -0.852 ± 0.16.

Regarding AVCQVIGMYDYTAQNDDELAFNRGQIINVLNKEDPDWWKGEVNGQVGLFPSNYVKLTT, the abundance fitness turned out to be 0.137 ± 0.08.

Consider AVCQVIGMYDYTAQNDDELAFNKGQIIEVLNKEDPDWWKGEVNGQVGLFPSNYVKLTT, for which the abundance fitness was -0.156 ± 0.22.

Consider AVCQVIGMYDYTAQNDDELAFNKGQIICVLNKEDPDWWKGEVNGQVGLFPSNYVKLTT, for which the abundance fitness was -0.632 ± 0.25.

AVCQVIGMYDYTAQNDDELAFNKGQIIGVLNKEDPDWWKGEVNGQVGLFPSNYVKLTT: the abundance fitness was -0.732 ± 0.16.

As to AVCQVIGMYDYTAQNDDELAFNKGQIITVLNKEDPDWWKGEVNGQVGLFPSNYVKLTT, the abundance fitness turned out to be 0.281 ± 0.23.

Regarding AVCQVIGMYDYTAINDDELAFNKGQIINVLNKEDPDWWKGEVNGQVGLFPSNYVKLTT, the abundance fitness was -0.58 ± 0.19.

In the case of AVCQVIGMYDYTAQNDDELTFNKGQIINVLNKEDPDWWKGEVNGQVGLFPSNYVKLTT, the abundance fitness is 0.127 ± 0.12.

As for AVCQVIGMYDYTAQNDDELFFNKGQIINVLNKEDPDWWKGEVNGQVGLFPSNYVKLTT, the abundance fitness is -0.673 ± 0.28.

Turning to AVCQVIGMYDYTAQNDDELDFNKGQIINVLNKEDPDWWKGEVNGQVGLFPSNYVKLTT, the abundance fitness was -0.286 ± 0.2.

Regarding AVCQVIGMYDYTAQNDDFLAFNKGQIINVLNKEDPDWWKGEVNGQVGLFPSNYVKLTT, the abundance fitness was -0.466 ± 0.17.

For AVCQVIGMYDYTAQNDDELAINKGQIINVLNKEDPDWWKGEVNGQVGLFPSNYVKLTT, the abundance fitness was -0.266 ± 0.17.

For AVCQVIGMYDYTAQNDDELAVNKGQIINVLNKEDPDWWKGEVNGQVGLFPSNYVKLTT, the abundance fitness is 0.013 ± 0.089.

AVCQVIGMYWYTAQNDDELAFNKGQIINVLNKEDPDWWKGEVNGQVGLFPSNYVKLTT: the abundance fitness was -0.507 ± 0.22.

Consider AVCQVIGMYGYTAQNDDELAFNKGQIINVLNKEDPDWWKGEVNGQVGLFPSNYVKLTT, for which the abundance fitness was -0.59 ± 0.1.

Regarding AVCQVIGMYDYTAQNDDELAFNKGQIINVLNKEDPDWWKGECNGQVGLFPSNYVKLTT, the abundance fitness was determined as 0.091 ± 0.13.

Turning to AVCQVIGMYDYTAQNDDELAFNKGQIINVLNKEDPDWWKGEINGQVGLFPSNYVKLTT, the abundance fitness is -0.048 ± 0.13.

Consider AVCQVIGMYDYTAQNDDELAFNKGQIGNVLNKEDPDWWKGEVNGQVGLFPSNYVKLTT, for which the abundance fitness is -0.746 ± 0.1.

For AVCQVIGMYDYTAQNDDELAFNKGQVINVLNKEDPDWWKGEVNGQVGLFPSNYVKLTT, the abundance fitness was 0.297 ± 0.12.

As to AVCQVIGMYDYTAQNDDELAFNKGQRINVLNKEDPDWWKGEVNGQVGLFPSNYVKLTT, the abundance fitness was -0.131 ± 0.094.

Take AVCQVIGMYDYTAQNDDELAFNKGQTINVLNKEDPDWWKGEVNGQVGLFPSNYVKLTT: the abundance fitness is 0.163 ± 0.15.

As for AVCQVIGIYDYTAQNDDELAFNKGQIINVLNKEDPDWWKGEVNGQVGLFPSNYVKLTT, the abundance fitness worked out at 0.542 ± 0.16.

As for AVCQVIGFYDYTAQNDDELAFNKGQIINVLNKEDPDWWKGEVNGQVGLFPSNYVKLTT, the abundance fitness is -0.286 ± 0.17.

For the variant AVCQVIGAYDYTAQNDDELAFNKGQIINVLNKEDPDWWKGEVNGQVGLFPSNYVKLTT, the abundance fitness is 0.209 ± 0.091.
